Substitutions are numbered along the chain they refer to.

The target of one data set is T1, Pti1 (Lycopersicon esculentum, UniProt Q41328 Q41328:1-354).
T1 sequence: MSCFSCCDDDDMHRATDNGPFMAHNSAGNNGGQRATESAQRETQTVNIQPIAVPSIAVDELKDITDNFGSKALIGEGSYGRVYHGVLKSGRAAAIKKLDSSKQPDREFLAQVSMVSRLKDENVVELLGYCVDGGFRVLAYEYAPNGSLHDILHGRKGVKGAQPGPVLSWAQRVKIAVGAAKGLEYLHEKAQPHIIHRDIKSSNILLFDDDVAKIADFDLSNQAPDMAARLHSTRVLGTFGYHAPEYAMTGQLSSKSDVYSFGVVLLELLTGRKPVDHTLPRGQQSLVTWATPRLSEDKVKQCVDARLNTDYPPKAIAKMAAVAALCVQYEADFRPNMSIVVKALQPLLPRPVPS
Nature of the data set: EMSA; negative control protein. The note with it: tags: GST fusion; label: 32P end label. As for the experimental part:
(§1) The wild type gln2 PR-box 2× ([…] […])(SEQ ID NO:17) and mutated PR-box 2× ([…] […]) (SEQ ID NO:18) were end-labeled by 32P as described by Ausubel, F. M., Brent, R., Kingston, R. E., Moore, D. D., Seidman, J. G., Smith, J. A., and Struhl, K. (1994). Current Protocols in Molecular Biology. (New York: Greene Publish Associates/John Wiley and Sons). Four fmol of probe was mixed with each of the purified GST-fusion proteins in a buffer containing 2 μg poly(dA-dT) (dA-dT), 25 mM Hepes (PH7.5), 40 mM KCl, 0.1 mM EDTA, 10% glycerol, and 1 mM DTT, incubated at room temperature for 15 minutes, and electrophoresed on a 4% polyacrylamide gel in 0.25×TBE buffer. Ohme-Takagi, M. and Shinshi, H. (1995). Ethylene-inducible DNA-binding proteins that interact with an ethylene-responsive element. Plant Cell 7, 173–182. The gel was subsequently dried and exposed to x-ray film. […] In contrast to GST-Pti5 and GST-Pti6, neither GST-Pti1 nor GST itself bound to the PR-box.

The next data set addresses GST (UniProt P08515 P08515:1-218). Nature of the data set: EMSA; negative control protein. The note with it: tags: GST alone; label: 32P end label. As to the method:
as §1
A general note: Mobility shift assays separate free from complexed probe on a gel.

Data set [1] deals with T2, Pti6 (Lycopersicon esculentum, UniProt O04682 SEQ:1-248). The data set can be described thus: EMSA; 4 fmol probe, poly(dA-dT), 25 mM Hepes pH 7.5, 40 mM KCl, room temperature. The conditions noted are these: tags: GST fusion (pGEX), E. coli PR745; label: 32P end label. As to the method:
as §1

Data set [2] deals with T3, Pti5 (Lycopersicon esculentum, UniProt O04681 SEQ:1-161). The data set is described as above. The conditions noted are these: tags: GST fusion (pGEX), E. coli PR745; label: 32P end label. As for the experimental part: as §1
T3 sequence (O04681 other isoform, or with tags, fused parts or gaps): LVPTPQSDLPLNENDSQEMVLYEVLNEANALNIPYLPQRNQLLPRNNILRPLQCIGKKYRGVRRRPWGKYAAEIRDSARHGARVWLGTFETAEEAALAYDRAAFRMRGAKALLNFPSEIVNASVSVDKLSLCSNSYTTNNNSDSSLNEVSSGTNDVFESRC
Data set [3] deals with T2, Pti6. Nature of the data set: EMSA; no binding detected; same buffer. The conditions noted are these: tags: GST fusion (pGEX), E. coli PR745; label: 32P end label. As for the experimental part:
as §1

Data set [4] addresses T3, Pti5. Nature of the data set: EMSA; no binding detected; same buffer. The note with it: tags: GST fusion (pGEX), E. coli PR745; label: 32P end label. As for the experimental part:
as §1

T2 sequence (O04682 whole entry, the tested form may be a part): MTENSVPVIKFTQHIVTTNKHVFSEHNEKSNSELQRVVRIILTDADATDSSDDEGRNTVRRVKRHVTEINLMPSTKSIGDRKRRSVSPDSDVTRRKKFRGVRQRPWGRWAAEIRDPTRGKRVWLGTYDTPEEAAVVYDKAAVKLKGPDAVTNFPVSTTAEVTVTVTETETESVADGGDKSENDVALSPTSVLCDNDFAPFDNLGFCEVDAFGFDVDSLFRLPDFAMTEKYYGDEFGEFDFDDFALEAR
GST, sequence (P08515 whole entry, one chain of several): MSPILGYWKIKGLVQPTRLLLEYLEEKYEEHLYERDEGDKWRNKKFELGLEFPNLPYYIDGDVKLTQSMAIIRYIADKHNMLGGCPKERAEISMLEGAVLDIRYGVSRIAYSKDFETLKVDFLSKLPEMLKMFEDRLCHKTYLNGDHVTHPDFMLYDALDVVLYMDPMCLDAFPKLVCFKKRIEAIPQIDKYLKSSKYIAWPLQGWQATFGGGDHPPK

B1: wild type gln2 PR-box 2x (dsDNA)
DNA 1: CATAAGAGCCGCCACTAAAATAAGACCGATCAAATAAGAGCCGCCAT
DNA 2: ATGGCGGCTCTTATTTGATCGGTCTTATTTTAGTGGCGGCTCTTATG
Take B1: the binding result with Pti1 is “no binding”; in the data set with GST, “no binding”; with Pti6 [1], “binds”; in the data set with Pti5 [2], “binds”.

B2: mutated PR-box 2x (dsDNA)
DNA 1: B1 DNA 1 with G8T, G11T, G40T, G43T
DNA 2: B1 DNA 2 with C5A, C8A, C37A, C40A
Take B2: the binding result in the data set with Pti6 [3] and in the data set with Pti5 [4] was “no binding” throughout.

The values are drawn from patent publication US6653533, “Nucleic acids encoding proteins with pathogen resistance activity and plants transformed therewith” (Purdue Research Foundation).
